We go through 34 variants from the supplement of paper PMC6755084.

To fix the notation:
B1: F1*; the commonest letter at each place (parent)
chain: GAGACCGCAACTGAAAAGTTGTTATCACTTGTCGTAAGACACTTTGGATGGGTTGAAGTTCTGCACGTAGAAGCAAAAGGC

The variants in the data set derive from B1. Briefly: fraction ligated after 30 min (ligated reads / total reads); higher = more ligase activity. The following applies: with F1*sub RNA substrate (template-directed ligation), 42 °C. Put shortly: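 Oligo-pool templates underwent PCR amplification, T7 transcription and gel purification to yield ribozyme variants. Gel-separated ligated and unligated bands were converted to complementary DNA with barcoded primers and sequenced on a MiSeq, keeping core bases of quality ≥20. The ratio of ligated reads to total reads gave the fraction ligated for every variant.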
Take GAGACCGCAACTGAAAAGTTGTTATCACTTGTCGTATCACACTTTGGATGGGTTGAAGTTCTGCACGTAGAAGCAAAAGGC [A37T G38C]: the fraction ligated is 0.841.
As to GAGACCGCAACTGAAAAGTTGTTATTACTTGTCGTGAGACACTTTGGATGGGTTGAAGTTCTGCACGTAGAAGCAAAAGGC [C26T A36G], the fraction ligated was found to be 0.828.
In the case of GAGACCGCAACTGAAAAGTTGTTATCACTTGTCGTAAGACACTTTGCATAGGTTGAAGTTCTGCACGTAGAAGCAAAAGGC [G47C G50A], the fraction ligated is 0.059.
Consider GAGACCGCAACTGAAAAGTTGTTATCACTTGTCGGAATACACTTTGGATGGGTTGAAGTTCTGCACGTAGAAGCAAAAGGC [T35G G38T], for which the fraction ligated is 0.845.
For GAGACCGCAACTGAAAAGTTGTTATCACTTGTCGTCCGACACTTTGGATGGGTTGAAGTTCTGCACGTAGAAGCAAAAGGC [A36C A37C] the value was 0.821; for GAGACCGCAACTGAAAAGTTGTTATCACTTGACGTAAGACACTTTGGATGGGTTAAAGTTCTGCACGTAGAAGCAAAAGGC [T32A G55A], 0.817; for GAGACCGCAACTGAAAAGTTGTTATCACTTGTCCTAAGACTCTTTGGATGGGTTGAAGTTCTGCACGTAGAAGCAAAAGGC [G34C A41T], 0.778.
Take GAGACCGCAACTGAAAAGTTGTAATCACTTGTCGTAAAACACTTTGGATGGGTTGAAGTTCTGCACGTAGAAGCAAAAGGC [T23A G38A]: the fraction ligated came out at 0.809.
The result for GAGACCGCAACTGAAAAGTTGTTATCACTTGTCGTAAGACAATTTGGATGGGTTGAGGTTCTGCACGTAGAAGCAAAAGGC [C42A A57G] reads 0.794; that for GAGACCGCAACTGAAAAGTTGTTATCACTCCTCGTAAGACACTTTGGATGGGTTGAAGTTCTGCACGTAGAAGCAAAAGGC [T30C G31C], 0.789; that for GAGACCGCAACTGAAAAGTTGTGATCACTTGTCTTAAGACACTTTGGATGGGTTGAAGTTCTGCACGTAGAAGCAAAAGGC [T23G G34T], 0.794.
For GAGACCGCAACTGAAAAGTTGTTATCACTTGACGTAAGTCACTTTGGATGGGTTGAAGTTCTGCACGTAGAAGCAAAAGGC [T32A A39T], the fraction ligated was 0.827.
For GAGACCGCAACTGAAAAGTTGTTATCACTTGTCGTATGACACTTTGTATGGGTTGAAGTTCTGCACGTAGAAGCAAAAGGC [A37T G47T] the value was 0.346.
The result for GAGACCGCAACTGAAAAGTTGTTATCACTTGGCGTAAGACACGTTGGATGGGTTGAAGTTCTGCACGTAGAAGCAAAAGGC [T32G T43G] reads 0.792.
For GAGACCGCAACTGAAAAGTTGTTATCACTAGTCGTAAGACACTTTAGATGGGTTGAAGTTCTGCACGTAGAAGCAAAAGGC [T30A G46A] the value was 0.809; for GAGACCGCAACTGAAAAGTTGTTATCACTTGTCTTAAGACACTTTGGATGGGTTGTAGTTCTGCACGTAGAAGCAAAAGGC [G34T A56T], 0.793; for GAGACCGCAACTGAAAAGTTGTTCTCACTTGTAGTAAGACACTTTGGATGGGTTGAAGTTCTGCACGTAGAAGCAAAAGGC [A24C C33A], 0.147.
Turning to GAGACCGCAACTGAAAAGTTGTTATCACTTGTTGAAAGACACTTTGGATGGGTTGAAGTTCTGCACGTAGAAGCAAAAGGC [C33T T35A], the fraction ligated came out at 0.879.
For the variant GAGACCGCAACTGAAAAGTTGTTATCACTTGTTGGAAGACACTTTGGATGGGTTGAAGTTCTGCACGTAGAAGCAAAAGGC [C33T T35G], the fraction ligated came to 0.854.
Take GAGACCGCAACTGAAAAGTTGTTATCACGTGTCGTAAGACACTGTGGATGGGTTGAAGTTCTGCACGTAGAAGCAAAAGGC [T29G T44G]: the fraction ligated amounted to 0.791.
On to GAGACCGCAACTGAAAAGTTGTTCTCACTTGTCGTAAGACACTTTGGATCGGTTGAAGTTCTGCACGTAGAAGCAAAAGGC [A24C G50C], for which the fraction ligated was 0.532.
Consider GAGACCGCAACTGAAAAGTTGTTATCACTTGTCTTAAGACACTGTGGATGGGTTGAAGTTCTGCACGTAGAAGCAAAAGGC [G34T T44G], for which the fraction ligated is 0.842.
For GAGACCGCAACTGAAAAGTTGTTATCACTTATCGTAAGTCACTTTGGATGGGTTGAAGTTCTGCACGTAGAAGCAAAAGGC [G31A A39T] the value was 0.795.
As to GAGACCGCAACTGAAAAGTTGTTATCGCTTGTCGTAAGACACTTAGGATGGGTTGAAGTTCTGCACGTAGAAGCAAAAGGC [A27G T45A], the fraction ligated turned out to be 0.694.
Take GAGACCGCAACTGAAAAGTTGTTATCACTTGTCGTAAGATACTTTGGGTGGGTTGAAGTTCTGCACGTAGAAGCAAAAGGC [C40T A48G]: the fraction ligated amounted to 0.784.
As to GAGACCGCAACTGAAAAGTTGTTATCACTTATCGTAAGACACTTTGGTTGGGTTGAAGTTCTGCACGTAGAAGCAAAAGGC [G31A A48T], the fraction ligated is 0.01.
As for GAGACCGCAACTGAAAAGTTGTTATTACTTGGCGTAAGACACTTTGGATGGGTTGAAGTTCTGCACGTAGAAGCAAAAGGC [C26T T32G], the fraction ligated is 0.801.
The result for GAGACCGCAACTGAAAAGTTGTTATCACTGGACGTAAGACACTTTGGATGGGTTGAAGTTCTGCACGTAGAAGCAAAAGGC [T30G T32A] reads 0.883; that for GAGACCGCAACTGAAAAGTTGTTATTACTTGTCGTAAGACAATTTGGATGGGTTGAAGTTCTGCACGTAGAAGCAAAAGGC [C26T C42A], 0.804; that for GAGACCGCAACTGAAAAGTTGTTATCACTTGTCGTAAGACACTTTGGATGGGTTCGCGTTCTGCACGTAGAAGCAAAAGGC [G55C A56G A57C], 0.104.
The result for GAGACCGCAACTGAAAAGTTGTTATCAATTGTCGTAAGACACTTTGGATGGGTTTAAGTTCTGCACGTAGAAGCAAAAGGC [C28A G55T] reads 0.8; that for GAGACCGCAACTGAAAAGTTGTTATCCCTTGTCGTAAGACACTCTGGATGGGTTGAAGTTCTGCACGTAGAAGCAAAAGGC [A27C T44C], 0.788.
The result for GAGACCGCAACTGAAAAGTTGTTATGACTTGTCGTAAGACACTTTGGATGGGTTGGAGTTCTGCACGTAGAAGCAAAAGGC [C26G A56G] reads 0.0248; that for GAGACCGCAACTGAAAAGTTGTTATCACTTGTCGTAAGACACTTTGGGTGGGTTGCAGTTCTGCACGTAGAAGCAAAAGGC [A48G A56C], 0.259.
